Literature values as cited in US20080125354A1, “SELECTIVE INHIBITION OF MATRIX METALLOPROTEINASES” (Florida Atlantic University, priority 2005, published 2008).

Experiments:
MMP-2 [1] = target: T1, MMP-2 (Homo sapiens, UniProt P08253); conditions: 30° C., 40 nM enzyme, 40 μM substrate
T1 sequence (P08253 110-660): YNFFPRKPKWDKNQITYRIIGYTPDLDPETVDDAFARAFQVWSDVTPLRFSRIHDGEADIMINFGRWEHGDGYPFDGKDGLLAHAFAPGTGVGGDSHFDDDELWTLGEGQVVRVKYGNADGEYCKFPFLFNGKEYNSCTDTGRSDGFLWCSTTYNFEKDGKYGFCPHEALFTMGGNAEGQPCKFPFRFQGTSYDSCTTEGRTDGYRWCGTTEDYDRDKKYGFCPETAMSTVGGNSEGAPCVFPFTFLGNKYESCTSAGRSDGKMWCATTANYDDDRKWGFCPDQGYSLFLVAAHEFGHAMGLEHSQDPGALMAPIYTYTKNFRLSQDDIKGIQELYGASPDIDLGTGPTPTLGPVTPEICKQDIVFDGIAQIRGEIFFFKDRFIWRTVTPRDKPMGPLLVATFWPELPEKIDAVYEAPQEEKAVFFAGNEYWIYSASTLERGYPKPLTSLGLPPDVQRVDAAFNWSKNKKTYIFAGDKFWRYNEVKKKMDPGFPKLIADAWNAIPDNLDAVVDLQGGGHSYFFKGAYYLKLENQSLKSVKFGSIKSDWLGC

MMP-13 = target: T2, MMP-13 (Homo sapiens, UniProt P45452); conditions: 30° C., 40 nM enzyme, 40 μM substrate
T2 construct: purchased R&D Systems (Minneapolis, Minn.)

MMP-1 [2] = target: T3, MMP-1 (Homo sapiens, UniProt P03956); conditions: 30° C., 40 nM enzyme, 40 μM substrate
T3 construct: made in house
T3 sequence (P03956 100-469): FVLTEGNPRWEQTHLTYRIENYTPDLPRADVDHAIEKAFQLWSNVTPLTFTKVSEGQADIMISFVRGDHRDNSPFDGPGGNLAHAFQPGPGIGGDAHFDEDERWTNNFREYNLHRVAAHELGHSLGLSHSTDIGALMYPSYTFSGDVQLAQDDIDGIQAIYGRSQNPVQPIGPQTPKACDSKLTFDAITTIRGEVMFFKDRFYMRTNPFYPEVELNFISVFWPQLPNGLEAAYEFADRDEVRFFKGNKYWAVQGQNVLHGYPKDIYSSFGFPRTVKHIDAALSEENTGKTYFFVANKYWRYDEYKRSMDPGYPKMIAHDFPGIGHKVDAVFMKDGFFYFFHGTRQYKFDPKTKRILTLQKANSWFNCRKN

MMP-14 = MMP-14 (Homo sapiens, UniProt P50281); conditions: 30° C., 40 nM enzyme, 40 μM substrate
MMP-3 = target: T4, MMP-3 (Homo sapiens, UniProt P08254); conditions: 30° C., 40 nM enzyme, 40 μM substrate
T4 construct: made in house
T4 sequence (P08254 100-477, species assumed): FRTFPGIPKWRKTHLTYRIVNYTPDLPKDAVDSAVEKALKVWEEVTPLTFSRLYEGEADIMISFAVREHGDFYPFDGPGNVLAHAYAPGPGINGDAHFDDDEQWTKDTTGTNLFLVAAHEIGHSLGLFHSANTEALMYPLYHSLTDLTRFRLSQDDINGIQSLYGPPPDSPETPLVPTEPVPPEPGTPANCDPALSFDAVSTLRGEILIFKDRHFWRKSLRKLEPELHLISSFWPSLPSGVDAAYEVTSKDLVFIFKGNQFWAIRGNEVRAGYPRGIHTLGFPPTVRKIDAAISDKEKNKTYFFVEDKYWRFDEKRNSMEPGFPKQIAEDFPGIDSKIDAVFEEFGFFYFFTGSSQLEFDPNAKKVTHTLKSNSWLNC

MMP-8 = target: T5, MMP-8 (Homo sapiens, UniProt P22894); conditions: 30° C., 40 nM enzyme, 40 μM substrate
T5 construct: made in house; host or cells: CHO-K1 cells
T5 sequence (P22894 101-467, species assumed): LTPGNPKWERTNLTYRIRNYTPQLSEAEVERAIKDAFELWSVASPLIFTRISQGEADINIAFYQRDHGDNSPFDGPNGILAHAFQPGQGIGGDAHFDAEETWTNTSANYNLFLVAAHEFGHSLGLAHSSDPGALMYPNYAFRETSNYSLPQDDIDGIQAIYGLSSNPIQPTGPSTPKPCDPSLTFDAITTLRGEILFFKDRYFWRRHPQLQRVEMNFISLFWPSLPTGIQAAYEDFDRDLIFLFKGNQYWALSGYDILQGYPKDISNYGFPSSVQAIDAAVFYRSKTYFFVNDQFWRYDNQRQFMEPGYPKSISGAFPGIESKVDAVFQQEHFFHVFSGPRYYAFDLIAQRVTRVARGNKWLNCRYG

MMP-2 [3] = target: T1, MMP-2; conditions: MMP-2, earlier study
MMP-9 = MMP-9 (Homo sapiens, UniProt P14780); conditions: 30° C., 40 nM enzyme, 40 μM substrate
Sequence of MMP-9 (P14780 94-707): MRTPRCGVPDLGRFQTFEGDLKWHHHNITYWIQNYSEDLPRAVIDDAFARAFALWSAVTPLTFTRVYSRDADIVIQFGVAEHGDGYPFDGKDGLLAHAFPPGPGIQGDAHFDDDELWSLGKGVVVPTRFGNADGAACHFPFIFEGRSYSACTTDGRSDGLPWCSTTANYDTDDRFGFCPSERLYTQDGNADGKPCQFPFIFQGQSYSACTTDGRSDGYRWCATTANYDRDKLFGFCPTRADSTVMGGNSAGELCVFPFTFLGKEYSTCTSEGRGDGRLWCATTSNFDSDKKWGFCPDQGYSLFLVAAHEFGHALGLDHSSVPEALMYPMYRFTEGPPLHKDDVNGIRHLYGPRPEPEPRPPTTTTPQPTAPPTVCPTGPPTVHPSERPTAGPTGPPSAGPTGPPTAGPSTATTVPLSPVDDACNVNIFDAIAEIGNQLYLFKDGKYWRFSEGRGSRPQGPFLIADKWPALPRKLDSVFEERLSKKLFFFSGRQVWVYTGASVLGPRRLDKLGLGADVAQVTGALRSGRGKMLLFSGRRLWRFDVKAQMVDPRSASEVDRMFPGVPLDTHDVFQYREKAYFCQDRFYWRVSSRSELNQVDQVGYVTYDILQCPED

MMP-1 [4] = target: T3, MMP-1; conditions: MMP-1, second earlier study

(Gly-Pro-Hyp)5-Gly-Pro-Gln-Gly˜Leu-Ala-Gly-Gln-Arg-Gly-Ile-Arg-(Gly-Pro-Hyp)5-NH2 [SEQ ID NO: 6]
hydrolysis of the substrate by MMP-2 (in words) (MMP-2 [1]): hydrolyzed the substrate efficiently
hydrolysis of the substrate by MMP-13 (in words) (MMP-13): hydrolyzed the substrate efficiently
hydrolysis of the substrate by MMP-1 (in words) (MMP-1 [2]): hydrolyzed the substrate efficiently
hydrolysis of the substrate by MMP-14 (in words) (MMP-14): hydrolyzed the substrate efficiently
hydrolysis of the substrate by MMP-3 (in words) (MMP-3): did not
hydrolysis of the substrate by MMP-8 (in words) (MMP-8): hydrolyzed the substrate efficiently

(Pro-Pro-Gly)6-NHOH
IC50 (MMP-2 [3]): 160 µM

(Pro-Pro-Gly)12-NHOH
IC50 (MMP-2 [3]): 90 µM

C6-(Gly-Pro-Hyp)4-Gly-Pro-Pro-Gly˜Val-Val-Gly-Glu-Gln-Gly-Glu-Gln-Gly-Pro-Pro-(Gly-Pro-Hyp)4-NH2 [SEQ ID NO: 5]
time to hydrolysis of the substrate by MMP-9 (MMP-9): ≤ 1 h
hydrolysis of the substrate by MMP-1 (in words) (MMP-1 [2]): did not cleave the substrate even after 24 h

hydroxamate-containing peptidomimetic onto the N-terminus of (Gly-Pro-Hyp)-4-Gly-Pro-Pro-Gly-Ser-Ser [C-terminally branched construct of a second earlier study carrying a hydroxamate-containing peptidomimetic]
IC50 (MMP-1 [4]): ~0.009 µM
